For orientation: EC50 means the concentration at which the effect is half-maximal. One may read the koff as a measure of how fast the partners let go of each other. For orientation: IC50 means the concentration that gives 50% inhibition. One may read the % inhibition as how much of the control response was suppressed. The Kd is the free concentration of one partner at which half of the binding sites on the other are occupied at equilibrium, for simple one-to-one binding.

The results in this text go back to patent US20140120095A1 (Boehringer Ingelheim, published 2014).

Numbering of substitutions follows the chain as printed. Where two headings read alike, the source gives them in different places.

The target of assay [1] is T1, recombinant human DLL4 (human, UniProt Q9NR61 25-522).
T1 construct: also called rhDLL4; hDLL4
T1 sequence (Q9NR61 25-522): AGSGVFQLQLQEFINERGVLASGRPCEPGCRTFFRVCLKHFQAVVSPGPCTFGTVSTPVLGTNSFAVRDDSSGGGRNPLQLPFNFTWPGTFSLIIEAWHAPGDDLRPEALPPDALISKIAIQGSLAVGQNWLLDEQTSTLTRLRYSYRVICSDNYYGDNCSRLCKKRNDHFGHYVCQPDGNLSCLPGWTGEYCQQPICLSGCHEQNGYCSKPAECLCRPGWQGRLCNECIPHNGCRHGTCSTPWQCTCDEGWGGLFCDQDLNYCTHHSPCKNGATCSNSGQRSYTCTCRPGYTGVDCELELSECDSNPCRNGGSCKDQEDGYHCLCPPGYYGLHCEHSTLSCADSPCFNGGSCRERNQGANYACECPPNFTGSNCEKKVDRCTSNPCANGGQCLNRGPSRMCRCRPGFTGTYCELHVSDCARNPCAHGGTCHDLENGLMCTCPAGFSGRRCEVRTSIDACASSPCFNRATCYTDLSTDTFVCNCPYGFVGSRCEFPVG
Put plainly: binding ELISA, coated rhDLL4. The protocol:
(§1) In order to determine cross-reactivity to mouse DII4 a binding ELISA is performed. […] Wells are blocked with a casein solution (1% in PBS). VHHs are applied as dilution series and binding is detected using a mouse anti-myc (Roche) and an anti-mouse-AP conjugate (Sigma, St Louis, Mo., USA) (FIG. 7 A-H). As reference, binding to human DII4 is measured.
For orientation: In an ELISA, binding on a coated surface is turned into a signal by an enzyme label.

Assay [2] concerns the target T1, recombinant human DLL4. Put plainly: Biacore off-rate, periplasmic extract; heterogeneous fit, slow off-rate. (Surface plasmon resonance follows binding to a sensor surface in real time, without labels.)
Assay [3] deals with T1, recombinant human DLL4. Put plainly: Biacore off-rate, periplasmic extract; heterogeneous fit, fast off-rate.
In assay [4] the target is T1, recombinant human DLL4. Put plainly: AlphaScreen biot-hDLL4/hNotch1-Fc, periplasmic extract. (In Alpha technology, singlet oxygen from a donor bead excites a nearby acceptor bead.)
The target in assay [5] is T1, recombinant human DLL4. The assay is described as follows: hDLL4 ELISA screen, periplasmic extract.
The next assay deals with T2, human Jagged-1 (human, UniProt P78504 34-1067, limits assumed).
T2 construct: also called hJagged-1; hJAG1
The assay is described as follows: binding ELISA on coated recombinant human Jagged-1, OD 405 nm. In short, it runs like this:
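Plates coated overnight at 4° C with 1 μg/mL ligand, blocked with 1% casein in PBS. VHH dilution series applied; bound VHH detected via mouse anti-myc then anti-mouse-AP conjugate.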

A further assay deals with T3, human DLL1 (human, UniProt O00548 18-545, limits assumed).
T3 construct: also called hDLL1
T3 sequence (looked up): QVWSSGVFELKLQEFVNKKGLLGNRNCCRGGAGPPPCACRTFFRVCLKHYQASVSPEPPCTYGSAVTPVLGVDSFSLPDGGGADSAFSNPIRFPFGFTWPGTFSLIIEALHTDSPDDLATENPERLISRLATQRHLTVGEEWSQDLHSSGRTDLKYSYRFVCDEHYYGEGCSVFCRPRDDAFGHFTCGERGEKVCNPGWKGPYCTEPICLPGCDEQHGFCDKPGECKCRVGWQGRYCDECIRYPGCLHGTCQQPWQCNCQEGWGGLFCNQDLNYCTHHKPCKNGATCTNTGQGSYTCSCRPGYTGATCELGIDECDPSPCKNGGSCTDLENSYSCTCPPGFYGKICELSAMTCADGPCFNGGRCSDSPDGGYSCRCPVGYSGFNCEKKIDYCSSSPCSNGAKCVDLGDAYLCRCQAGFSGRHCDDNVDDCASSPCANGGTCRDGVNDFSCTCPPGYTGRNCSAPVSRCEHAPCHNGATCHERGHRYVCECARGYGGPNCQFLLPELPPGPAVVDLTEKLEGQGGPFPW
The assay is described as follows: binding ELISA on coated recombinant human DLL1, OD 405 nm. Here is the method:
Absence of binding to homologous ligands human DLL1 and human Jagged-1 is assessed via solid phase binding assay (ELISA). In brief, human DLL1 (Alexis, San Diego, Calif., USA) and human Jagged-1 (Alexis, San Diego, Calif., USA) are coated overnight at 4° C. at 1 μg/mL in a 96-well MaxiSorp plate (Nunc, Wiesbaden, Germany). Wells are blocked with a casein solution (1% in PBS). VHHs are applied as dilution series and binding is detected using a mouse anti-myc (Roche) and an anti-mouse-AP conjugate (Sigma, St. Louis, Mo., USA).

Another assay deals with T4, recombinant mouse DLL4 (mouse, UniProt Q9JI71 27-532).
T4 construct: extracellular domain; also called rmDLL4; mDLL4
T4 sequence (Q9JI71 27-532): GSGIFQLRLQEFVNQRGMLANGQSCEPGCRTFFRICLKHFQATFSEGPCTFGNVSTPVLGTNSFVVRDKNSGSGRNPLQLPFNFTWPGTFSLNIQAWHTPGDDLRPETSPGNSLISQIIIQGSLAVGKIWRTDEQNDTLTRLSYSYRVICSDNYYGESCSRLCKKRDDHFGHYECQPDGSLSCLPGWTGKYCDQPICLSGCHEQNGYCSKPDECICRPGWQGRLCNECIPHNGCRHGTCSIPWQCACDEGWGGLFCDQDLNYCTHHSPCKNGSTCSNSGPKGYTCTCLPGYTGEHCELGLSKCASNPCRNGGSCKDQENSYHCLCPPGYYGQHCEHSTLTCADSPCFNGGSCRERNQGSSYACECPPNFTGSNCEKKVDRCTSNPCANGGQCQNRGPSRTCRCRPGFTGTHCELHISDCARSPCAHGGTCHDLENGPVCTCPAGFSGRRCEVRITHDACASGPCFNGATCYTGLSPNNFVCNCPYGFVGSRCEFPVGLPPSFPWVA
The assay is described as follows: binding ELISA on coated recombinant mouse DLL4, OD 405 nm. The protocol:
as §1

For assay [6], the target named is T1, recombinant human DLL4. Put plainly: competition AlphaScreen, biot-hDLL4/hNotch1-Fc; partial inhibitor.
The target in assay [7] is T5, VEGF (used to stimulate HUVEC cells) (UniProt P15692-4 27-191, limits assumed). Put plainly: cell-based or functional assay.
Assay [8] addresses T6, recombinant human VEGF165 (human, UniProt P15692-4 27-191, biotinylated in the competition assays).
T6 construct: Bought protein; also called hVEGF165; rhVEGF165
Put plainly: AlphaScreen, hVEGF165/hVEGFR2-Fc competition.

Assay [9] addresses T6, recombinant human VEGF165. The assay is described as follows: SPR Biacore, VEGF165.
For assay [10], the target named is T6, recombinant human VEGF165. Put plainly: AlphaScreen, hVEGF165/hVEGFR1-Fc competition, -HSA.
The target in assay [11] is T6, recombinant human VEGF165. Put plainly: AlphaScreen, hVEGF165/hVEGFR2-Fc competition, -HSA.
Assay [12] deals with T6, recombinant human VEGF165. Put plainly: AlphaScreen, hVEGF165/hVEGFR2-Fc competition, +5 uM HSA.
Assay [13] addresses T6, recombinant human VEGF165. The assay is described as follows: AlphaScreen, hVEGF165/hVEGFR2-Fc competition. Also on record: % inhibition: concentration or dose not given beside the values. The protocol: (§2) Finally, streptavidin donor beads (20 μg/ml) are added and after 1 hour of incubation in the dark, fluorescence is measured on the Envision microplate reader.
For assay [14], the target named is T6, recombinant human VEGF165. The assay is described as follows: ELISA, hVEGF165/hVEGFR2-Fc competition. Also on record: % inhibition: concentration or dose not given beside the values.
Assay [15] deals with T6, recombinant human VEGF165. Put plainly: SPR Biacore, immobilised hVEGF165, two state reaction model. The protocol: Samples are injected for 2 min and allowed to dissociate up to 20 min at a flow rate of 45 μl/min. In between sample injections, the chip surface is regenerated with 100 mM HCl. HBS-EP+(Hepes buffer pH7.4+EDTA) is used as running buffer. Binding curves are fitted using a Two State Reaction model by Biacore T100 Evaluation Software v2.0.1.
^{(a)}KD = kd1/kₐ₁ * (kd2/(kd2 + kₐ₂)) ^{(b)}Curves are fitted using a Two State Reaction model by Biacore T100 Evaluation Software v2.0.1
Target sequence in this assay (P15692 other isoform, or with tags, fused parts or gaps): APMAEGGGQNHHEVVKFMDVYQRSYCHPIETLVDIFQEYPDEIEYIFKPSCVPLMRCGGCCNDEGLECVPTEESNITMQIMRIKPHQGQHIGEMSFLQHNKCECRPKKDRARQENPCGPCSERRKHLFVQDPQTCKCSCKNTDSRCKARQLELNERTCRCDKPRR

Assay [16] deals with T6, recombinant human VEGF165. Put plainly: AlphaScreen, hVEGF165/hVEGFR1-Fc competition. Here is the method: as §2
Target sequence in this assay (P15692 other isoform, or with tags, fused parts or gaps): as above
In assay [17] the target is T6, recombinant human VEGF165. The assay is described as follows: ELISA, hVEGF165/hVEGFR1-Fc competition. Also on record: % inhibition: concentration or dose not given beside the values.
Target sequence in this assay (P15692 other isoform, or with tags, fused parts or gaps): as above
The target of assay [18] is T7, recombinant mouse VEGF164 (mouse, UniProt Q00731-2 27-190, biotinylated as the labelled ligand of the mVEGF164/mVEGFR2 AlphaScreen).
T7 construct: also called mVEGF164; rmVEGF164
T7 sequence (looked up): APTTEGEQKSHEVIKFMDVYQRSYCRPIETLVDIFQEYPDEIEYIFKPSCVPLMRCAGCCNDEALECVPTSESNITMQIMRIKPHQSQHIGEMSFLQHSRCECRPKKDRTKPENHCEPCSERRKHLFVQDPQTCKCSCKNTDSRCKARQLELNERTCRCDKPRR
Put plainly: binding ELISA, coated rmVEGF164. Here is the method: Cross-reactivity to mouse VEGF164 is determined using a binding ELISA. […] Wells are blocked with a casein solution (1% in PBS). […] A mouse VEGF164 reactive mAb is included as positive control.

Assay [19] has as its target T5, VEGF (used to stimulate HUVEC cells). The assay is described as follows: cell-based or functional assay. The source holds these as a separate data set.
Target sequence in this assay (P15692 other isoform, or with tags, fused parts or gaps limits assumed): as the sequence (P15692 other isoform, or with tags, fused parts or gaps) above
Assay [20] has as its target T6, recombinant human VEGF165. The assay is described as follows: AlphaScreen, hVEGF165/hVEGFR2-Fc competition. Here is the method:
as §2
Target sequence in this assay (P15692 other isoform, or with tags, fused parts or gaps): as the sequence (P15692 other isoform, or with tags, fused parts or gaps) above
This is another data set of the same source.

Assay [21] deals with T6, recombinant human VEGF165. Put plainly: AlphaScreen, hVEGF165/hVEGFR1-Fc competition. On the set-up: % inhibition: concentration or dose not given beside the values. The protocol: as §2
Target sequence in this assay (P15692 other isoform, or with tags, fused parts or gaps): as the sequence (P15692 other isoform, or with tags, fused parts or gaps) above
In assay [22] the target is T5, VEGF (used to stimulate HUVEC cells). Put plainly: cell-based or functional assay. The source holds these as a separate data set.
Target sequence in this assay (P15692 other isoform, or with tags, fused parts or gaps limits assumed): as the sequence (P15692 other isoform, or with tags, fused parts or gaps) above
Assay [23] deals with T6, recombinant human VEGF165. Put plainly: binding ELISA, coated rhVEGF165.
Target sequence in this assay (P15692 other isoform, or with tags, fused parts or gaps): as the sequence (P15692 other isoform, or with tags, fused parts or gaps) above

B1: DLLBII17F10 (VHH)
VHH: EVQLVESGGGLVQAGGSLRLSCASSGRTLLNYAMGWFRQAPGKEREFVSGINWSGGSTYYADSVKGRFTISRDNAENTVYLHMNSLKPEDTAVYYCAAAHDNYWFTDDSLGRGLKYWGQGTQVTVSS
Take B1: in the assay with recombinant human DLL4 [1], the EC50 came out at 0.9 nM. Further, the off-rate constant (koff) came out at 0.00031 s⁻¹ with recombinant human DLL4 [2] and 0.0011 s⁻¹ in the assay with recombinant human DLL4 [3]. Also, the “% inh” value was found to be 88% in the assay with recombinant human DLL4 [4] and 98% with recombinant human DLL4 [5].

B2: DLLBII08C11 (VHH)
VHH: EVQLVESGGGLVQAGGSLRLSCAASGFTFDDYAIGWFRQAPGKEREGVSCISSHDRTTYYADSVKGRFTISSDNAKNTVYLQMNSLKPEDTAVYYCAADPLVCGYNDPRLADYWGQGTQVTVSS
notes: also called DLLBII8C11
As to B2, in the assay with recombinant human DLL4 [1], the EC50 is 1.1 nM. In addition, the binding result with human Jagged-1, in the assay with human DLL1 and in the assay with recombinant mouse DLL4 was “no binding (tested: 2.5e-7 M)” each time. For the same molecule, the IC50 with recombinant human DLL4 [6] was determined as 0.7 nM. In addition, the “% inh” value in the assay with recombinant human DLL4 [5] was 57%.

B3: DLLBII17B03 (VHH)
VHH: EVQLVESGGGLVQPGGSLRLSCAASGFTFENYALGWFRQAPGKEREWVSCISSSDGTTYYADSVKGRFTISRDNVKNTVYLQMNRLKPEDTAIYYCALSLGSSWCAYDYWGQGTQVTVSS
B3: the koff with recombinant human DLL4 [2] is 0.00022 s⁻¹; with recombinant human DLL4 [3], 0.0012 s⁻¹. The results for the “% inh” value with recombinant human DLL4 [4] and in the assay with recombinant human DLL4 [5] were 77% and 76%, respectively.

B4: VEGFBII037 (VHH)
VHH: DVQLVESGGGLVQPGGSLRLSCAASGRTFSSYSMGWFRQAPGKEREFVVAISKGGYKYDAVSLEGRFTISRDNAKNTVYLQMNSLRPEDTAVYYCASSRAYGSSRLRLADTYEYWGQGTLVTVSS
notes: also called VEGFBII0037
For B4, in assay [7], the “% inhibition, VEGF HUVEC proliferation assay” value is 78% and the “IC50, VEGF HUVEC proliferation assay” value is 1.54 nM. Also, in [8], the “% inhibition” value came out at 100% and the IC50 was 0.3 nM. Further, the Kd in [9] came out at 0.27 nM.

B5: VEGFBII038 (VHH)
VHH: B4 VHH with M82I
notes: also called VEGFBII0038
Turning to B5, in [7], the “% inhibition, VEGF HUVEC proliferation assay” value amounted to 92% and the “IC50, VEGF HUVEC proliferation assay” value worked out at 0.6 nM. In addition, in assay [10], the “% inh” value came out at 50% and the 50% inhibitory concentration (IC50) amounted to 0.2 nM. In addition, in assay [8], the “% inhibition” value worked out at 100% and the IC50 is 0.143 nM. Also, in [11], the “% inh” value turned out to be 100% and the IC50 amounted to 0.2 nM. Further, in [12], the IC50 amounted to 0.1 nM. Moreover, the Kd in assay [9] was determined as 0.36 nM.

B6: VEGFBII021 (VHH, not shown: small tags and cut ends)
chain: EVQLVESGGGLVQTGDSLRLSCEVSGRTFSSYSMGWFRQAQGKEREFVVAISKGGYKYDSVSLEGRFTISKDNAKNTVYLQINSLKPEDTAVYYCASSRAYGSSRLRLADTYEYWGQGTQVTVSSGGGGSGGGGSGGGGSGGGGSGGGGSGGGGSGGGGSGGGGSEVQLVESGGGLVQPGGSLRLSCVASGIRFMSMAWYRQAPGKHRELVARISSGGTTAYVDSVKGRFTISRDNSKNTVYLQMNSLKAEDTAVYYCNTFSSRPNPWGAGTQVTVSS
notes: Bivalent (heterodimeric) anti-VEGF VHH; also called VEGFBII23B04-40GS-5B05
For B6, in assay [13], the “% inhibition” value worked out at 100% and the IC50 amounted to 0.007 nM. In addition, in [14], the “% inhibition” value is 100% and the IC50 was found to be 0.204 nM. In addition, in assay [15], the Kd amounted to 0.07 nM, the ka1 was determined as 1.2e+06 M⁻¹ s⁻¹, the ka2 came to 0.023 s⁻¹ and the kd1 worked out at 0.011 s⁻¹. The kd2 in [15] came to 0.00019 s⁻¹. Also, in assay [16], the “% inhibition” value is 100% and the IC50 came out at 0.016 nM. Further, in assay [17], the “% inhibition” value was determined as 97% and the IC50 is 0.254 nM. Also, the EC50 in [18] stood at 0.502 nM. Besides, in assay [19], the “% inhibition, VEGF HUVEC Erk phosphorylation assay” value is 103% and the “IC50, VEGF HUVEC Erk phosphorylation assay” value worked out at 0.21 nM. Moreover, in [20], the IC50 was determined as 0.009 nM. For the same molecule, in [21], the “% inhibition” value is 100% and the IC50 was 0.012 nM. In [22], the “% inhibition, VEGF HUVEC proliferation assay” value was determined as 98% and the “IC50, VEGF HUVEC proliferation assay” value was determined as 0.4 nM. Further, in [23], the EC50 was 0.334 nM.
